Fewer inactive variants are shown than the library holds.

We go through eight sequences from the supplement of paper PMC9233669.

One series relates to biotinyl-Val-oxazolone. The series is described as follows: self-aminoacylation, catalytic enhancement (BVO) (fold over background); higher = more active; k-Seq, kA / k0A0; sequences stand for … in GGGAAUGGAUCCACAUCUACGAAUUC…UUCACUGCAGACUUGACGAAGCUG
In outline: (§1)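 The uncatalyzed rate is the low-activity peak of a bimodal Gaussian fit, and catalytic enhancement is median kA divided by it. The kA values came from pseudo-first-order fits, with 1000 bootstraps, of per-sequence fraction reacted measured by streptavidin capture, triplicate qPCR and Illumina sequencing. Mutagenized RNA pools with a 21-nt variable region (0.43 μM) were reacted with each biotinyl-aminoacyl-oxazolone at 2–1250 μM in 50 μL HEPES/NaCl/KCl/MgCl2/CaCl2 buffer with 5% acetonitrile, pH 6.9–7.0, for 90 minutes at room temperature.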

In another series the test system is biotinyl-Phe-oxazolone. The series is described as follows: self-aminoacylation, catalytic enhancement (BFO) (fold over background); higher = more active; k-Seq, kA / k0A0; sequences stand for … in GGGAAUGGAUCCACAUCUACGAAUUC…UUCACUGCAGACUUGACGAAGCUG
In outline: as §1

The next series concerns biotinyl-Leu-oxazolone. The series is described as follows: self-aminoacylation, catalytic enhancement (BLO) (fold over background); higher = more active; k-Seq, kA / k0A0; sequences stand for … in GGGAAUGGAUCCACAUCUACGAAUUC…UUCACUGCAGACUUGACGAAGCUG
In short, it runs like this: as §1

A further series has as its system biotinyl-Met-oxazolone. The series is described as follows: self-aminoacylation, catalytic enhancement (BMO) (fold over background); higher = more active; k-Seq, kA / k0A0; sequences stand for … in GGGAAUGGAUCCACAUCUACGAAUUC…UUCACUGCAGACUUGACGAAGCUG
In short, it runs like this:
as §1

Another series deals with biotinyl-Trp-oxazolone. The series is described as follows: self-aminoacylation, catalytic enhancement (BWO) (fold over background); higher = more active; k-Seq, kA / k0A0; sequences stand for … in GGGAAUGGAUCCACAUCUACGAAUUC…UUCACUGCAGACUUGACGAAGCUG
In outline: as §1

The subject of a further series is biotinyl-Ile-oxazolone. The series is described as follows: self-aminoacylation, catalytic enhancement (BIO) (fold over background); higher = more active; k-Seq, kA / k0A0; sequences stand for … in GGGAAUGGAUCCACAUCUACGAAUUC…UUCACUGCAGACUUGACGAAGCUG
In short, it runs like this:
as §1

For the sequence “CCAUACUUCAAGCAAUGGGUC [Fam1B.1 aminoacylation ribozyme variant]”, the self-aminoacylation in the series with biotinyl-Val-oxazolone is 1; in the series on biotinyl-Phe-oxazolone, 0.918; with biotinyl-Leu-oxazolone, 0.926; in the series on biotinyl-Met-oxazolone, 0.972; in the series on biotinyl-Trp-oxazolone, 0.627; in the series on biotinyl-Ile-oxazolone, 1.04.
With “CCAGACUUCAAGCCAUCGGUC [Fam1B.1 aminoacylation ribozyme variant]”, the self-aminoacylation in the series with biotinyl-Val-oxazolone was 1.46; in the series on biotinyl-Phe-oxazolone, 0.714; with biotinyl-Leu-oxazolone, 1.24; in the series with biotinyl-Met-oxazolone, 1.17; in the series on biotinyl-Trp-oxazolone, 1.33; in the series on biotinyl-Ile-oxazolone, 1.34.
On to “AUAACCCUGGUCACCGAGUGA [Fam2.1 aminoacylation ribozyme variant]”, for which the self-aminoacylation is 4.06 with biotinyl-Val-oxazolone; 44 in the series on biotinyl-Phe-oxazolone; 9.68 in the series with biotinyl-Leu-oxazolone; 8.82 in the series on biotinyl-Met-oxazolone; 10.2 in the series on biotinyl-Trp-oxazolone; 4.78 in the series with biotinyl-Ile-oxazolone.
For the sequence “AAGUUUGCUAAUGGUCCCAAG [Fam3.1 aminoacylation ribozyme variant]”, the self-aminoacylation in the series with biotinyl-Val-oxazolone came out at 1; in the series on biotinyl-Phe-oxazolone, 1.11; in the series on biotinyl-Leu-oxazolone it was 0.908; in the series on biotinyl-Met-oxazolone, 0.976; in the series with biotinyl-Trp-oxazolone it was 1.21; in the series with biotinyl-Ile-oxazolone, 0.977.
For “AUUACCUUGGUCAUCGAUUGA [Fam2.1 aminoacylation ribozyme variant]”, the self-aminoacylation with biotinyl-Val-oxazolone is 0.824; with biotinyl-Phe-oxazolone, 0.71; in the series on biotinyl-Leu-oxazolone, 0.855; in the series with biotinyl-Met-oxazolone, 0.916; with biotinyl-Trp-oxazolone it was 0.601; in the series with biotinyl-Ile-oxazolone it was 0.907.
As for “AUGUUUGCUAAUAGUCGAAAG [Fam3.1 aminoacylation ribozyme variant]”, the self-aminoacylation turned out to be 1.11 in the series on biotinyl-Val-oxazolone; 8.7 in the series on biotinyl-Phe-oxazolone; 1.07 in the series on biotinyl-Leu-oxazolone; 1.08 in the series on biotinyl-Met-oxazolone; 2.94 in the series with biotinyl-Trp-oxazolone; 1.28 with biotinyl-Ile-oxazolone.
Consider “CCACGCUUCAAGCAAUCAGUC [Fam1B.1 aminoacylation ribozyme variant]”, for which the self-aminoacylation in the series on biotinyl-Val-oxazolone turned out to be 0.83; with biotinyl-Phe-oxazolone it was 27.4; with biotinyl-Leu-oxazolone it was 0.886; with biotinyl-Met-oxazolone, 0.811; in the series with biotinyl-Trp-oxazolone it was 9.22; with biotinyl-Ile-oxazolone, 0.745.
On to “CUACUUUAUACAAUCGGUCUG [Fam1A.1 aminoacylation ribozyme variant]”, for which the self-aminoacylation worked out at 0.882 in the series on biotinyl-Val-oxazolone; 0.815 in the series with biotinyl-Phe-oxazolone; 0.808 in the series on biotinyl-Leu-oxazolone; 0.832 with biotinyl-Met-oxazolone; 0.626 in the series with biotinyl-Trp-oxazolone; 0.857 in the series on biotinyl-Ile-oxazolone.
